Here are results for 21 molecules from US20250339504A1 (published 2025).

First the molecules themselves.
T1: GPC3 peptide on HLA-A*24:02 (human)
T1 peptide: EYILSLEEL

T2: FOXM1 peptide on HLA-A*24:02 (human)
T2 peptide: IYTWIEDHF

T3: GPC3 peptide on HLA-A2 (human)
T3 peptide: FVGEFFTDV

B1: i2F3 (TCR, V domains shown)
Valpha: RKEVEQDPGPFNVPEGATVAFNCTYSNSASQSFFWYRQDCRKEPKLLMSVYSSGNEDGRFTAQLNRASQYISLLIRDSKLSDSATYLCVVNKSWGKLQFGAGTQVVVTP
Vbeta: DSGVTQTPKHLITATGQRVTLRCSPRSGDLSVYWYQQSLDQGLQFLIQYYNGEERAKGNILERFSAQQFPDLHSELNLSSLELGDSALYFCASSAGTSGNEQFFGPGTRLTVL
B2: i3C2 (TCR, V domains shown)
Valpha: GQNIDQPTEMTATEGAIVQINCTYQTSGFNGLFWYQQHAGEAPTFLSYNVLDGLEEKGRFSSFLSRSKGYSYLLLKELQMKDSASYLCAVRVWKAAGNKLTFGGGTRVLVKP
Vbeta: GAVVSQHPSWVICKSGTSVKIECRSLDFQATTMFWYRQFPKQSLMLMATSNEGSKATYEQGVEKDKFLINHASLTLSTLTVTSAHPEDSSFYICSARRLAGGGNEQFFGPGTRLTVL
B3: G9 (TCR, V domains shown)
Valpha: KQEVTQIPAALSVPEGENLVLNCSFTDSAIYNLQWFRQDPGKGLTSLLLIQSSQREQTSGRLNASLDKSSGRSTLYIAASQPGDSATYLCAVTRRALTFGSGTRLQVQP
Vbeta: KAGVTQTPRYLIKTRGQQVTLSCSPISGHRSVSWYQQTPGQGLQFLFEYFSETQRNKGNFPGRFSGRQFSNSRSEMNVSTLELGDSALYLCASSVTSGRTHTDTQYFGPGTRLTVL
B4: (46)2A6 (TCR, V domains shown)
Valpha: RKEVEQDPGPFNVPEGATVAFNCTYSNSASQSFFWYRQDCRKEPKLLMSVYSSGNEDGRFTAQLNRASQYISLLIRDSKLSDSATYLCKISGGYNKLIFGAGTRLAVHP
Vbeta: DSGVTQTPKHLITATGQRVTLRCSPRSGDLSVYWYQQSLDQGLQFLIQYYNGEERAKGNILERFSAQQFPDLHSELNLSSLELGDSALYFCASSVGGGLGTEAFFGQGTRLTVV
B5: eC7 (TCR, V domains shown)
Valpha: SQQGEEDPQALSIQEGENATMNCSYKTSINNLQWYRQNSGRGLVHLILIRSNEREKHSGRLRVTLDTSKKSSSLLITASRAADTASYFCAVRYSSASKIIFGSGTRLSIRP
Vbeta: DSGVTQTPKHLITATGQRVTLRCSPRSGDLSVYWYQQSLDQGLQFLIQYYNGEERAKGNILERFSAQQFPDLHSELNLSSLELGDSALYFCASSAGGGSNNEQFFGPGTRLTVL
B6: il2G6, TRA of SEQ ID NO: 130 (TCR, V domains shown)
Valpha: RKEVEQDPGPFNVPEGATVAFNCTYSNSASQSFFWYRQDCRKEPKLLMSVYSSGNEDGRFTAQLNRASQYISLLIRDSKLSDSATYLCVVNTGRRALTFGSGTRLQVQP
Vbeta: DSGVTQTPKHLITATGQRVTLRCSPRSGDLSVYWYQQSLDQGLQFLIQYYNGEERAKGNILERFSAQQFPDLHSELNLSSLELGDSALYFCASSVGGGAGNTIYFGEGSWLTVV
B7: i6E9 (TCR, V domains shown)
Valpha: RKEVEQDPGPFNVPEGATVAFNCTYSNSASQSFFWYRQDCRKEPKLLMSVYSSGNEDGRFTAQLNRASQYISLLIRDSKLSDSATYLCVVNLGNYGQNFVFGPGTRLSVLP
Vbeta: DSGVTQTPKHLITATGQRVTLRCSPRSGDLSVYWYQQSLDQGLQFLIQYYNGEERAKGNILERFSAQQFPDLHSELNLSSLELGDSALYFCASSVGGGLSNEQFFGPGTRLTVL
B8: i7E6, TRA of SEQ ID NO: 138 (TCR, V domains shown)
Valpha: AQRVTQPEKLLSVFKGAPVELKCNYSYSGSPELFWYVQYSRQRLQLLLRHISRESIKGFTADLNKGETSFHLKKPFAQEEDSAMYYCALANQAGTALIFGKGTTLSVSS
Vbeta: DSGVTQTPKHLITATGQRVTLRCSPRSGDLSVYWYQQSLDQGLQFLIQYYNGEERAKGNILERFSAQQFPDLHSELNLSSLELGDSALYFCASSPGGGASSPLHFGNGTRLTVT
B9: eC1 (TCR, V domains shown)
Valpha: GESVGLHLPTLSVQEGDNSIINCAYSNSASDYFIWYKQESGKGPQFIIDIRSNMDKRQGQRVTVLLNKTVKHLSLQIAATQPGDSAVYFCAGRTGFQKLVFGTGTRLLVSP
Vbeta: DSGVTQTPKHLITATGQRVTLRCSPRSGDLSVYWYQQSLDQGLQFLIQYYNGEERAKGNILERFSAQQFPDLHSELNLSSLELGDSALYFCASSVGGGLYNEQFFGPGTRLTVL
B10: il2G6, TRA of SEQ ID NO: 129 (TCR, V domains shown)
Valpha: LAKTTQPISMDSYEGQEVNITCSHNNIATNDYITWYQQFPSQGPRFIIQGYKTKVTNEVASLFIPADRKSSTLSLPRVSLSDTAVYYCLVGHSGNTPLVFGKGTRLSVIA
Vbeta: DSGVTQTPKHLITATGQRVTLRCSPRSGDLSVYWYQQSLDQGLQFLIQYYNGEERAKGNILERFSAQQFPDLHSELNLSSLELGDSALYFCASSVGGGAGNTIYFGEGSWLTVV
B11: i7E6, TRA of SEQ ID NO: 139 (TCR, V domains shown)
Valpha: KQEVTQIPAALSVPEGENLVLNCSFTDSAIYNLQWFRQDPGKGLTSLLLIQSSQREQTSGRLNASLDKSSGRSTLYIAASQPGDSATYLCAVKRRAAGNKLTFGGGTRVLVKP
Vbeta: DSGVTQTPKHLITATGQRVTLRCSPRSGDLSVYWYQQSLDQGLQFLIQYYNGEERAKGNILERFSAQQFPDLHSELNLSSLELGDSALYFCASSPGGGASSPLHFGNGTRLTVT
B12: eD3 (TCR, V domains shown)
Valpha: RKEVEQDPGPFNVPEGATVAFNCTYSNSASQSFFWYRQDCRKEPKLLMSVYSSGNEDGRFTAQLNRASQYISLLIRDSKLSDSATYLCVVKGGNNFNKFYFGSGTKLNVKP
Vbeta: NAGVTQTPKFQVLKTGQSMTLQCAQDMNHNSMYWYRQDPGMGLRLIYYSASEGTTDKGEVPNGYNVSRLNKREFSLRLESAAPSQTSVYFCASSHRVNSNQPQHFGDGTRLSIL
B13: (21)1D5 (TCR, V domains shown)
Valpha: QKEVEQDPGPLSVPEGAIVSLNCTYSNSAFQYFMWYRQYSRKGPELLMYTYSSGNKEDGRFTAQVDKSSKYISLFIRDSQPSDSATYLCAMSGHFNKFYFGSGTKLNVKP
Vbeta: KAGVTQTPRYLIKTRGQQVTLSCSPISGHRSVSWYQQTPGQGLQFLFEYFSETQRNKGNFPGRFSGRQFSNSRSEMNVSTLELGDSALYLCASSLRAGELFFGEGSRLTVL
B14: F5 (TCR, V domains shown)
Valpha: KDQVFQPSTVASSEGAVVEIFCNHSVSNAYNFFWYLHFPGCAPRLLVKGSKPSQQGRYNMTYERFSSSLLILQVREADAAVYYCAVNQAGTALIFGKGTTLSVSS
Vbeta: DTEVTQTPKHLVMGMTNKKSLKCEQHMGHRAMYWYKQKAKKPPELMFVYSYEKLSINESVPSRFSPECPNSSLLNLHLHALQPEDSALYLCASSQERTSGRSADTQYFGPGTRLTVL
B15: ②1E7 (TCR, V domains shown)
Valpha: AQSVSQHNHHVILSEAASLELGCNYSYGGTVNLFWYVQYPGQHLQLLLKYFSGDPLVKGIKGFEAEFIKSKFSFNLRKPSVQWSDTAEYFCAVRHGGTGTASKLTFGTGTRLQVTL
Vbeta: GAVVSQHPSWVICKSGTSVKIECRSLDFQATTMFWYRQFPKQSLMLMATSNEGSKATYEQGVEKDKFLINHASLTLSTLTVTSAHPEDSSFYICSARALGGYTFGSGTRLTVV
B16: 1F5 (TCR, V domains shown)
Valpha: EDQVTQSPEALRLQEGESSSLNCSYTVSGLRGLFWYRQDPGKGPEFLFTLYSAGEEKEKERLKATLTKKESFLHITAPKPEDSATYLCAASNSGGSNYKLTFGKGTLLTVNP
Vbeta: DSGVTQTPKHLITATGQRVTLRCSPRSGDLSVYWYQQSLDQGLQFLIQYYNGEERAKGNILERFSAQQFPDLHSELNLSSLELGDSALYFCASSVDGKGTQYFGPGTRLLVL
B17: ⑧2D9 (TCR, V domains shown)
Valpha: QKEVEQNSGPLSVPEGAIASLNCTYSDRGSQSFFWYRQYSGKSPELIMFIYSNGDKEDGRFTAQLNKASQYVSLLIRDSQPSDSATYLCAVNMDGNNRLAFGKGNQVVVIP
Vbeta: DAGITQSPRHKVTETGTPVTLRCHQTENHRYMYWYRQDPGHGLRLIHYSYGVKDTDKGEVSDGYSVSRSKTEDFLLTLESATSSQTSVYFCASVYGSEAFFGQGTRLTVV
B18: ⑨5C6 (TCR, V domains shown)
Valpha: AQSVTQPDIHITVSEGASLELRCNYSYGATPYLFWYVQSPGQGLQLLLKYFSGDTLVQGIKGFEAEFKRSQSSFNLRKPSVHWSDAAEYFCAVGSPSGYSTLTFGKGTMLLVSP
Vbeta: EAQVTQNPRYLITVTGKKLTVTCSQNMNHEYMSWYRQDPGLGLRQIYYSMNVEVTDKGDVPEGYKVSRKEKRNFPLILESPSPNQTSLYFCASSPTRFYEQYFGPGTRLTVT
B19: i2B7 (TCR, V domains shown)
Valpha: AQSVAQPEDQVNVAEGNPLTVKCTYSVSGNPYLFWYVQYPNRGLQFLLKYITGDNLVKGSYGFEAEFNKSQTSFHLKKPSALVSDSALYFCAVNPTGGGNKLTFGTGTQLKVEL
Vbeta: DARVTQTPRDKVTEMGQEVTMRCQPILGHNTVFWYRQTMMQGLELLAYFRNRAPLDDSGMPKDRFSAEMPDATLATLKIQPSEPRDSAVYFCASGLGGNQPQHFGDGTRLSIL
B20: 52B11 (TCR, V domains shown)
Valpha: QKEVEQDPGPLSVPEGAIVSLNCTYSNSAFQYFMWYRQYSRKGPELLMYTYSSGNKEDGRFTAQVDKSSKYISLFIRDSQPSDSATYLCAQRIVMEYGNKLVFGAGTILRVKS
Vbeta: EPEVTQTPSHQVTQMGQEVILRCVPISNHLYFYWYRQILGQKVEFLVSFYNNEISEKSEIFDDQFSVERPDGSNFTLKIRSTKLEDSAMYFCASSEGAEAFFGQGTRLTVV
B21: e1D8 (TCR, V domains shown)
Valpha: GEDVEQSLFLSVREGDSSVINCTYTDSSSTYLYWYKQEPGAGLQLLTYIFSNMDMKQDQRLTVLLNKKDKHLSLRIADTQTGDSAIYFCAENHSSASKIIFGSGTRLSIRP
Vbeta: DSGVTQTPKHLITATGQRVTLRCSPRSGDLSVYWYQQSLDQGLQFLIQYYNGEERAKGNILERFSAQQFPDLHSELNLSSLELGDSALYFCASSVGSGRNYEQYFGPGTRLTVT

The first test deals with T1, GPC3 peptide on HLA-A*24:02. In words: multimer staining.
Consider B1, for which the binding result is on record as “recognises”.
Still for that read-out and setting: the entry for B2 is “recognises”.
Take B3: the binding result is listed as “recognises”.
Same read-out and setting: the entry for B4 is “recognises”.
B5: the binding result was “recognises”.
In the case of B6, the binding result is given as “recognises”.
Take B7: the binding result was “recognises”.
On the same count and under the same terms, the entry for B8 is “recognises”; for B9 it is “recognises”.
For B10, the binding result is reported as “recognises”.
The same measure, in the same setting: with B11 the entry was “recognises”.
For the molecule B12, the binding result is “recognises”.

Another test deals with T2, FOXM1 peptide on HLA-A*24:02. The test is described as follows: multimer staining.
For B13, the binding result is on record as “recognises”.
The same measure, in the same setting: with B14 the entry was “recognises”.
On the same count and under the same terms, with B15 the entry was “recognises”; with B16, “recognises”.

The target in a further test is T3, GPC3 peptide on HLA-A2. The test is described as follows: multimer staining.
B17: the binding result is “recognises”.
Turning to B18, the binding result is “recognises”.
On the same count and under the same terms, the entry for B19 is “recognises”; for B20 it is “recognises”.

The target of another test is T1, GPC3 peptide on HLA-A*24:02. In words: cytokine release.
With B21, the binding result was “recognises”.
